From US11434289B2, “Anti-GPR20 antibody and anti-GPR20 antibody-drug conjugate” (DAIICHI SANKYO COMPANY, LIMITED, priority 2017, dated 2022)

Tests used:
[1] = target: T1, human GPR20 with EC1 substituted with a mouse GPR20-derived sequence (Mus musculus, UniProt Q8BYC4, A277V/A334G/A336G/DEL187-187/DEL317-317/F111Y/F318R/G190S/I170A/I299V/I338H/I343A/K166R/K271H/K319E/K330R/M323G/N268D/P337R/P351A/Q152R/R229H/R314H/S188T/S192P/S345P/T332S/T347A/T353A/T60A/T88I/V178A/V247I/V269M/V56A/W159C/Y312G); experiment: Cell-ELISA binding to human/mouse chimeric GPR20 (EC1 substituted); conditions: hGPR20_mECD1, FIG. 22
T1 construct: expressed in transfected cells; host or cells: 293α cells, transient
Procedure: (§1) The culture supernatant of the 293a cells transfected with the expression vector prepared in Example 1)-4-1 was removed, and the culture supernatant from each hybridoma was then added to the 293a cells transfected either with pcDNA3.1-hGPR20 or pcDNA3.1. The cells were left standing at 4° C. for 1 hour. The cells in the wells were washed once with PBS (+) supplemented with 5% FBS, and thereafter, Anti-Rat IgG-Peroxidase antibody produced in rabbit (Sigma-Aldrich Co. LLC) that had been 500-fold diluted with PBS (+) supplemented with 5% FBS was added to the wells. The cells were left standing at 4° C. for 1 hour. The cells in the wells were washed three times with PBS (+) supplemented with 5% FBS, and thereafter, OPD chromogenic solution (which had been prepared by dissolving o-phenylenediamine dihydrochloride (Wako Pure Chemical Industries, Ltd.) and H2O2 in an OPD solution (0.05 M trisodium citrate, 0.1 M disodium hydrogen phosphate 12-water; pH 4.5), so that the substances became 0.4 mg/ml and 0.6% (v/v), respectively) was added in an amount of 100 μL/well to the wells. A coloring reaction was carried out with occasional stirring. Thereafter, 1 M HCl was added to the plate (100 μL/well) to terminate the coloring reaction, followed by measurement of the absorbance at 490 nm using a plate reader (ENVISION: PerkinElmer, Inc.).
An expression vector for human GPR20 with EC1 substituted with a mouse GPR20-derived sequence was constructed using an In-Fusion (registered trademark) HD Cloning Kit (Clontech Laboratories, Inc.). Specifically, using the full-length human GPR20 expression vector pcDNA3.1-hGPR20 produced in Example 1 as a template, a PCR reaction was carried out with the primer set given below and KOD FX DNA polymerase (Toyobo Co., Ltd.) at 10 cycles each involving 98° C. for 10 seconds, 58° C. for 30 seconds, and 68° C. for 7 minutes to amplify a DNA fragment comprising the vector sequence. […]

human GPR20 = target: T2, human GPR20 (Homo sapiens, UniProt Q99678); experiment: Analysis of GPR20-binding site of anti-GPR20 antibodies by Cell-ELISA; conditions: EC1 = positions 1 to 48, EC2 = positions 108 to 125 of human GPR20
T2 construct: expressed in transfected cells; host or cells: 293T cells, transient, Lipofectamine 2000
Procedure: as §1
Binding sites of anti-human GPR20 antibodies were classified by measuring their binding activity against mouse GPR20, N-terminally FLAG-tagged human GPR20, and human/mouse chimeric GPR20 in which each of four extracellular regions (EC1, EC2, EC3, and EC4) of human GPR20 was substituted with a mouse GPR20-derived sequence, respectively, by Cell-ELISA. FIG. 21 is a diagram of the comparison between the amino acid sequences of human GPR20 (NP_005284) and mouse GPR20 (NP_775541). The four extracellular regions EC1 to EC4 are represented by positions in the amino acid sequence of human GPR20. EC1 corresponds to positions 1 to 48, EC2 corresponds to positions 108 to 125, EC3 corresponds to positions 190 to 196, and EC4 corresponds to positions 260 to 275. […]

mouse GPR20 = target: T3, mouse GPR20 (Mus musculus, UniProt Q8BYC4); experiment: Cell-ELISA binding to 293α cells expressing mouse GPR20; conditions: transiently transfected 293α cells, FIG. 22
T3 construct: using the full-length mouse GPR20 expression vector pcDNA-mGPR20 constructed in 4)-1 as a template; expressed in transfected cells; host or cells: 293α cells, transient
Procedure: as §1
According to a method known to a person skilled in the art, cDNA was artificially synthesized based on Ref Seq sequence NM_173365 of mouse GPR20, and then cloned into pcDNA-DEST40 expression vector (Invitrogen Corp.) to construct mouse GPR20 expression vector pcDNA-mGPR20.
The binding activity of the anti-GPR20 antibodies 04-046, 04-079, 04-126, 04-021, 13-024, and 13-048 against 293a cells into which different GPR20 expression vectors were transiently introduced was examined by the same method as the Cell-ELISA method shown in Example 1. […]

T1 sequence (Q8BYC4 with tags, fused parts or gaps with the stated changes): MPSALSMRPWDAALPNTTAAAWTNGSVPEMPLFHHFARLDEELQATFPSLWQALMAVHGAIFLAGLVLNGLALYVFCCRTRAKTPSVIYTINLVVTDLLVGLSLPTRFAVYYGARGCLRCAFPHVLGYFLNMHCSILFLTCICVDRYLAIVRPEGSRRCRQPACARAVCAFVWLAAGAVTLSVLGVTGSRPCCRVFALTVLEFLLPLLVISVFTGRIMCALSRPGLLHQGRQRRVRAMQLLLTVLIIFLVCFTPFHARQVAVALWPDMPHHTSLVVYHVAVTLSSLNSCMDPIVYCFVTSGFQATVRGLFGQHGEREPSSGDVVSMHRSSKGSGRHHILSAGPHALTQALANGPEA
T2 sequence (Q99678 whole entry): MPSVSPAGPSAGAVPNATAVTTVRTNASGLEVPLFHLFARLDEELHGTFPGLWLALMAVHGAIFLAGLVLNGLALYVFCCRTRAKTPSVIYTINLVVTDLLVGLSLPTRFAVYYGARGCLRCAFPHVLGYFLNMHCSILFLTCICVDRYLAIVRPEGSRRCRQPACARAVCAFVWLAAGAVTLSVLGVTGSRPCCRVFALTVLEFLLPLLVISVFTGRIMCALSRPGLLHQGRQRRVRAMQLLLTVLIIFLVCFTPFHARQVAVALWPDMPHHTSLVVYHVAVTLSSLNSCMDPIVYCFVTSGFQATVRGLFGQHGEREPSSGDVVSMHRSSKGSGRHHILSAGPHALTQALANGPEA
T3 sequence (Q8BYC4 whole entry): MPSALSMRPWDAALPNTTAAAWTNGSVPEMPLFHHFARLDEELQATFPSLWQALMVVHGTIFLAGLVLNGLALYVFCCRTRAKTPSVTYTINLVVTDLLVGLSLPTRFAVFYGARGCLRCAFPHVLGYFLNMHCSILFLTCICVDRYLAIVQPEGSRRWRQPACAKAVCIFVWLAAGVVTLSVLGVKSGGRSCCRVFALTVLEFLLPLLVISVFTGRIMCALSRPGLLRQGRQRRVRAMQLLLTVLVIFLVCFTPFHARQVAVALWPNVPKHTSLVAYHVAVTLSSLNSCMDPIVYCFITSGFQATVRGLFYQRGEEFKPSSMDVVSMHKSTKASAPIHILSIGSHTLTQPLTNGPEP

Molecule | binding activity after substituting EC1 of human GPR20 with that of mouse-derived GPR20 [1] | GPR20 extracellular region recognized (human GPR20) | binding activity against mouse GPR20 (mouse GPR20)
04-079: rat anti-human GPR20 antibody; heavy chain SEQ ID NO: 12, light chain SEQ ID NO: 17 (antibody, listed as Rattus norvegicus, SIGNAL (1)..(19); SIGNAL (1)..(20)) heavy: MEWNWVFLFLLSVTAVVHSQVQLQQSGAELAKPGSSVKISCKASGYTFTSYYITWIKQTTGQGLKYIGYINPGSGHTNYNEKFKGKATLTVDKSSSTAFMQLSSLTPDDSAVYYCARGAGGFLRIISKFDYWGQGVMVTVSSAQTTAPSVYPLAPGCGDTTSSTVTLGCLVKGYFPEPVTVTWNSGALSSDVHTFPAVLQSGLYTLTSSVTSSTWPSQTVTCNVAHPASSTKVDKKVERRNGGIGHKCPTCPTCHKCPVPELLGGPSVFIFPPKPKDILLISQNAKVTCVVVDVSEEEPDVQFSWFVNNVEVHTAQTQPREEQYNSTFRVVSALPIQHQDWMSGKEFKCKVNNKALPSPIEKTISKPKGLVRKPQVYVMGPPTEQLTEQTVSLTCLTSGFLPNDIGVEWTSNGHIEKNYKNTEPVMDSDGSFFMYSKLNVERSRWDSRAPFVCSVVHEGLHNHHVEKSISRPPGK light: METDRLLLWVLLLWVPGSTGDTVLTQSPALAVSLGQRVTISCRASKSVSTYMHWYQQRSGQQPKLLIYSASNLESGVPSRFSGSGSGTDFTLTIDPVKADDITNYYCQQSNELPYTFGAGTKLELKRADAAPTVSIFPPSTEQLATGGASVVCLMNNFYPRDISVKWKIDGTERRDGVLDSVTDQDSKDSTYSMSSTLSLTKADYESHNLYTCEVVHKTSSSPVVKSFNRNEC | lost binding activity | EC1, EC2 | did not bind
04-046: rat anti-human GPR20 antibody; heavy chain SEQ ID NO: 2, light chain SEQ ID NO: 7 (antibody, listed as Rattus norvegicus, SIGNAL (1)..(19); SIGNAL (1)..(20)) heavy: MEWNWVFLFLLSVTAEVHSQVQLQQSGAELAKPGSSVKISCKASGYTFTSYYISWIKQTTGQGLKYIGFINPGSGHTNYNEKFKGKATLTVDKSSSTAFMQLSSLTPDDSAIYYCARGAGGFLRIITKFDYWGQGVMVTVSSAQTTAPSVYPLAPGCGDTTSSTVTLGCLVKGYFPEPVTVTWNSGALSSDVHTFPAVLQSGLYTLTSSVTSSTWPSQTVTCNVAHPASSTKVDKKVERRNGGIGHKCPTCPTCHKCPVPELLGGPSVFIFPPKPKDILLISQNAKVTCVVVDVSEEEPDVQFSWFVNNVEVHTAQTQPREEQYNSTFRVVSALPIQHQDWMSGKEFKCKVNNKALPSPIEKTISKPKGLVRKPQVYVMGPPTEQLTEQTVSLTCLTSGFLPNDIGVEWTSNGHIEKNYKNTEPVMDSDGSFFMYSKLNVERSRWDSRAPFVCSVVHEGLHNHHVEKSISRPPGK light: METDRLLLWVLLLWVPGSTGDTVLTQSPALAVSLGQRVTISCRASKSVSTYIHWYQQRSGQQPKLLIYSASNLESGVPSRFSGSGSGTDFTLTIDPVEPDDIANYYCQQINELPYTFGAGTKLELKRADAAPTVSIFPPSTEQLATGGASVVCLMNNFYPRDISVKWKIDGTERRDGVLDSVTDQDSKDSTYSMSSTLSLTKADYESHNLYTCEVVHKTSSSPVVKSFNRNEC | lost binding activity | EC1, EC2 | did not bind
04-126: rat anti-human GPR20 antibody; heavy chain SEQ ID NO: 22, light chain SEQ ID NO: 27 (antibody, listed as Rattus norvegicus, SIGNAL (1)..(19); SIGNAL (1)..(20)) heavy: MEWNWVFLFLLSVTAEVHSQVQLRQSGAELAKPGSSVKISCKASGYTFTSYYIIWMKQTAGQGLQYVGYINPGSGHTNYNEKFKGKATLTVDKSSSTAFMQLSSLTPDDSAVYYCARGTGGFLRIISKFDYWGQGVMVTVSSAQTTAPSVYPLAPGCGDTTSSTVTLGCLVKGYFPEPVTVTWNSGALSSDVHTFPAVLQSGLYTLTSSVTSSTWPSQTVTCNVAHPASSTKVDKKVERRNGGIGHKCPTCPTCHKCPVPELLGGPSVFIFPPKPKDILLISQNAKVTCVVVDVSEEEPDVQFSWFVNNVEVHTAQTQPREEQYNSTFRVVSALPIQHQDWMSGKEFKCKVNNKALPSPIEKTISKPKGLVRKPQVYVMGPPTEQLTEQTVSLTCLTSGFLPNDIGVEWTSNGHIEKNYKNTEPVMDSDGSFFMYSKLNVERSRWDSRAPFVCSVVHEGLHNHHVEKSISRPPGK light: METDRLLLWVLLLWVPGSTGDTVLTQSPALAVSLGQRVTISCRASKSVSTYMHWYQQRSGQQPKLLIYSASTLESGVPSRFSGSGSGTDFTLTIDPVEADDIANYYCQQSNELPYTFGAGTKLELKRADAAPTVSIFPPSTEQLATGGASVVCLMNNFYPRDISVKWKIDGTERRDGVLDSVTDQDSKDSTYSMSSTLSLTKADYESHNLYTCEVVHKTSSSPVVKSFNRNEC | lost binding activity | EC1, EC2 | did not bind
